# Marks after values point to notes of the source that are not given here.
# T1: ERα36 (Homo sapiens, UniProt P03372)
# T1 construct: made in house; host or cells: chemical synthesis (no expression host)
# T1 sequence (P03372 284-310 isoform P03372-4 limits assumed): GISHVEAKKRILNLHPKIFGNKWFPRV
# B1: ScFv3: fully human anti-ERα36 single chain antibody, SEQ ID NO: 7 (protein)
# scFv: QSVLTQPASVSGSPGQSITISCTGTSSDVGGYNYVSWYQQHPGKAPKLMIYDVSKRPSGVSNRFSGSKSGNTASLTISGLQAEDEADYYCSSYTSSSTLVFGGGTKLTVLGSGGSTITSYNVYYTKLSSSGTEVQLVQSGGGVAQPGRSLRLSCAASGITFNSYGMHWVRQAPGKGLEWVAVMPYDGSNEYYADSVKGRFTISRDNSKNTLYLQMNSLRAEDTAVYYCAKGSGMVQLWADAFDVWGQGTMVTVSSAS
# modifications: scFv3
# B2: ScFv2: fully human anti-ERα36 single chain antibody, SEQ ID NO: 5 (protein)
# scFv: QSALTQPASVSGSPGQSITISCTGTSSDVGGYNYVSWYQQHPGKAPKLMIYDVSKRPSGVSNRFSGSKSGNTASLTISGLQAEDEADYYCSSYTSSSTLVFGGGTKLTVLGSGGSTITSYNVYYTKLSSSGTQVQLLESGAEVKKPGASVKVSCKASGYTFTAYYMHWVRQAPGQGLEWMAMIDPSGSITSYAQKFQGRVTMSRDTSTSTLYMELSSLRSDDTAVYYCARDLKEGFSVPGAFDIWGQGTMVTVSSAS
# modifications: scFv2
# B3: ScFv6: fully human anti-ERα36 single chain antibody, SEQ ID NO: 13 (protein)
# scFv: EIVMTQSPGTLSLSPGERATLSCRASQSVDSNFLAWYQQRPGQAPRLLIYGVSSSATGIPDRFSGSGSGTDFTLSIDRLEPEDFAVYYCQQYGSSPTFGGGTKLEIKRSGGSTITSYNVYYTKLSSSGTQVQLQESGGGLVQPGRSLRLSCAASGFTFDDYAMHWVRQAPGKGLEWVSGISWNSGSIGYADSVKGRFTISRDNAKNSLYLQMNSLRAEDTAVYYCARSGDYGAFDIWGQGTMVTVSSAS
# modifications: scFv6
# Legend:
# [1] = target: T1, ERα36; assay: ELISA of re-natured ScFv binding to ERα36
# Description: Streptavidin-coated 96-well plates were washed twice with PBS. Biotinylated ERα36 (final concentration of 20 μg/ml) was added into each testing well. The plates were incubated for 2 h at room temperature and washed three times with PBST. Re-natured ScFv samples (100 μl, S14A1r1, S24A2r2, S33A2r1, S41A3r3, S53A1r1, S66A1r1 and S72A2r1) were added into the testing wells respectively. Each ScFv was diluted five times in five gradients, and two parallel wells were loaded with each ScFv at each gradient. The plates were incubated at 37° C. for 1 h. The plates were washed three times with PBST, followed by addition of 100 μl anti-His-6 mouse monoclonal antibody (1:2000 dilution) per well and 1 h incubation at 37° C. The plates were washed three times with PBST, followed by addition of 100 μl goat anti-mouse-HRP (1:2500 dilution) per well and 1 h incubation at 37° C. The plates were washed six times with PBST, followed by addition of 100 μl OPD to develop under the protection from light. The reactions were terminated by adding 50 μl 2M H2SO4 to each well, and data were collected by microplate reader at 490 nm.
# One positive control and three negative controls were performed in parallel. The positive control used rabbit anti-ER multi-clonal antibody serum in replacement of the ScFv re-natured sample and goat-anti-rabbit-HRP in replacement of goat-anti-mouse HRP.
# [2] = test system: Human breast tumor BCAP-37; assay: Tumor growth inhibition in BCAP-37 tumor-bearing nude mice; type: in vivo, BALB/c-nu nude mice
# Source text: 49 female BALB/c-nu nude mice (provided by department of laboratory animal science, Peking University Health Science Center) were used in the studies.
# (§1) The tested animals were grouped into 7 groups with 7 nude mice in each group. The seven groups are the negative control group treated with human IgG antibody (purchased from Beijing Biosynthesis Biotechnology Co. Ltd.), the positive control group treated with herceptin (provided by Beijing Shenogen pharma group), the multi-clonal antibody test group treated with rabbit anti-ERα36 multi-clonal antibody (provided by Wang, Zhao-Yi group, Creighton University), and the monoclonal antibody test groups treated with human anti-ERα36 monoclonal ScFv1, ScFv3, ScFv4 and ScFv7 respectively.
# (§2) The test groups were administered with the same dose of rabbit anti-ERα36 multi-clonal antibody, human anti-ERα36 monoclonal ScFv1, ScFv3, ScFv4 and ScFv7 respectively (5 mg/kg, 100 μg/dose). The positive control group was administered with 5 mg/kg herceptin (100 μg/dose,), and the negative control group was administered with 5 mg/kg IgG antibody (100 μg/dose).
# (§3) Human breast tumor BCAP-37 (estrogen receptor positive, provided by department of pharmacology, Institute of Materia Medica, Chinese Academy of Medical Sciences) was implanted subcutaneously into the armpit of the right forelimb of each tested nude mouse. Diethylstilbestrol was administered by gavage with the dose of 7 μg/day for 9 consecutive days after the implantation. On day 10, the mice were grouped into 7 groups and administered with the corresponding drug via intravenous injection, at a dosing interval of 3-4 days, for 6 consecutive doses. Every 3-4 days, the tumor-bearing mice were weighed and their tumor sizes were measured. Parameters were calculated using the following equations:
# Volume of Tumor in animals of each group (VT): Vt=½×a×b^2, (Equation 1),
# wherein a and b represent the length and width of the tumor, respectively;
# wherein V0 is the volume of tumor before drug administration at the time of grouping, Vt is the volume of tumor at each measurement; the calculation method of V0 is the same as that of Vt;
# wherein TRTV is the arithmetic mean of RTV of the test groups, and CRTV is the arithmetic mean of RTV of the negative control group.
# The tumor bearing mice in each group were terminated after 21 days of observations and drug administrations. The tumors were then excised from the animals, photographed and weighed on 1/10000 analytical balance. The average tumor weights and tumor growth inhibition rates were calculated:
# All experimental data were shown in mean±standard deviation. Groups were compared using statistical t test.
# [3] = Body weight and mortality of tumor-bearing nude mice during drug administration; type: in vivo, BALB/c-nu nude mice; settings: mean ± SD
# Source text: as §1, §2
# as §3, with “equations: […]” for “equations:”
# [4] = ScFv concentration 170.00 μg/ml
# [5] = BCAP-37 nude mice, 5 mg/kg i.v. every 3-4 days, 6 doses, mean ± SD
# [6] = BCAP-37 nude mice, 5 mg/kg i.v. every 3-4 days, Vt relative to V0, mean ± SD
# [7] = 5 mg/kg i.v. every 3-4 days, 6 doses
# [8] = ScFv concentration 235.00 μg/ml
molecule,measurement,setting,value
B1,OD490 Well1,[1]; ScFv concentration 1.44 μg/ml,0.242
same,OD490 Well2,[1]; ScFv concentration 1.44 μg/ml,0.037
same,OD490 Well1,[1]; ScFv concentration 7.20 μg/ml,0.290
same,OD490 Well2,[1]; ScFv concentration 7.20 μg/ml,0.229
same,OD490 Well1,[1]; ScFv concentration 36.00 μg/ml,0.448
same,OD490 Well2,[1]; ScFv concentration 36.00 μg/ml,0.344
same,OD490 Well1,[1]; [4],1.459
same,OD490 Well2,[1]; [4],1.349
same,"Tumor volumes, Day 4 after drug administration",[2]; [5],171.91 ± 73.68^b mm^3
same,"Tumor volumes, Day 7 after drug administration",[2]; [5],302.93 ± 100.01^b mm^3
same,"Tumor volumes, Day 11 after drug administration",[2]; [5],1442.70 ± 406.32^b mm^3
same,"Tumor volumes, Day 14 after drug administration",[2]; [5],1993.02 ± 405.84^b mm^3
same,"Tumor volumes, Day 18 after drug administration",[2]; [5],2859.65 ± 427.16^b mm^3
same,"Tumor volumes, Day 21 after drug administration",[2]; [5],3324.97 ± 460.89^b mm^3
same,"relative tumor volume (RTV), Day 4",[2]; [6],3.61 ± 2.03^b
same,"relative tumor volume (RTV), Day 7",[2]; [6],6.31 ± 2.88^b
same,"relative tumor volume (RTV), Day 11",[2]; [6],30.44 ± 14.49^b
same,"relative tumor volume (RTV), Day 14",[2]; [6],41.87 ± 16.82^b
same,"relative tumor volume (RTV), Day 18",[2]; [6],59.61 ± 20.46^b
same,"relative tumor volume (RTV), Day 21",[2]; [6],69.18 ± 22.85^b
same,inhibition of tumor growth in tumor-bearing mice (in words),"[2]; BCAP-37 nude mice, 5 mg/kg i.v., 6 doses",strongest inhibitory activities
same,"Tumor volumes, Before drug administration","[2]; baseline, BCAP-37 nude mice, 5 mg/kg i.v. every 3-4 days, 6 doses, mean ± SD",50.51 ± 10.12 mm^3
same,tumor sizes at pathological examination (in words),[2]; excised tumors after 21 days,the smallest among the mono-clonal antibody groups
same,Tumor weight,"[2]; excised tumors after 21 days, BCAP-37 nude mice, 5 mg/kg i.v., 6 doses, mean ± SD",2.738 ± 0.344 g
same,Tumor growth inhibition rate (%),"[2]; from average tumor weights after 21 days vs negative control, 5 mg/kg i.v., 6 doses",59.76%
same,"Body weights of tumor-bearing nude mice, Day 4 after drug administration",[3]; [7],20.28 ± 0.54
same,"Body weights of tumor-bearing nude mice, Day 7 after drug administration",[3]; [7],20.75 ± 0.31
same,"Body weights of tumor-bearing nude mice, Day 11 after drug administration",[3]; [7],21.24 ± 0.55
same,"Body weights of tumor-bearing nude mice, Day 14 after drug administration",[3]; [7],22.04 ± 0.59
same,"Body weights of tumor-bearing nude mice, Day 18 after drug administration",[3]; [7],23.38 ± 0.46
same,"Body weights of tumor-bearing nude mice, Day 21 after drug administration",[3]; [7],23.62 ± 0.36
same,body weight when grouped,[3]; baseline at the time of grouping,19.94 ± 0.81
same,"Body weights of tumor-bearing nude mice, Before drug administration","[3]; baseline, 5 mg/kg i.v. every 3-4 days, 6 doses",19.94 ± 0.81
B2,OD490 Well1,[1]; ScFv concentration 1.40 μg/ml,0.095
same,OD490 Well2,[1]; ScFv concentration 1.40 μg/ml,0.096
same,OD490 Well1,[1]; ScFv concentration 7.00 μg/ml,0.138
same,OD490 Well2,[1]; ScFv concentration 7.00 μg/ml,0.121
same,OD490 Well1,[1]; ScFv concentration 35.00 μg/ml,0.343
same,OD490 Well2,[1]; ScFv concentration 35.00 μg/ml,0.359
B3,OD490 Well1,[1]; ScFv concentration 0.38 μg/ml,0.127
same,OD490 Well2,[1]; ScFv concentration 0.38 μg/ml,0.129
same,OD490 Well1,[1]; ScFv concentration 1.90 μg/ml,0.161
same,OD490 Well2,[1]; ScFv concentration 1.90 μg/ml,0.162
same,OD490 Well1,[1]; ScFv concentration 9.40 μg/ml,0.210
same,OD490 Well2,[1]; ScFv concentration 9.40 μg/ml,0.209
same,OD490 Well1,[1]; ScFv concentration 47.00 μg/ml,0.327
same,OD490 Well2,[1]; ScFv concentration 47.00 μg/ml,0.326
same,OD490 Well1,[1]; [8],0.677
same,OD490 Well2,[1]; [8],0.664

# Reference: US20110311517A1, “Antibodies and methods for treating estrogen receptor-associated diseases” (SHENOGEN PHARMA GROUP, LTD., priority 2009, published 2011)
